The text below walks through data of paper PMC4439037, “Distinctive Structure of the EphA3/Ephrin-A5 Complex Reveals a Dual Mode of Eph Receptor Interaction for Ephrin-A5” (PLoS ONE, 2015).

The labels stand for the following.
B1: human ephrin-A5 receptor-binding domain (domain or fragment)
chain: KAVADRYAVYWNSSNPRFQRGDYHIDVCINDYLDVFCPHYEDSVPEDKTERYVLYMVNFDGYSACDHTSKGFKRWECNRPHSPNGPLKFSEKFQLFTPFSLGFEFRPGREYFYISSAIPDNGRRSCLKLKVFVRPTNSCMK
modifications: deglycosylated with PNGase F
notes: also called ephrin-A5 ligand
B2: human EphA3 ligand-binding domain (domain or fragment)
chain: EVNLLDSKTIQGELGWISYPSHGWEEISGVDEHYTPIRTYQVCNVMDHSQNNWLRTNWVPRNSAQKIYVELKFTLRDCNSIPLVLGTCKETFNLYYMESDDDHGVKFREHQFTKIDTIAADESFTQMDLGDRILKLNTEIREVGPVNKKGFYLAFQDVGACVALVSVRVYFK
notes: also called EphA3 LBD; EphA3 receptor; not shown: GST, N-terminal, cleaved; 10xHis, N-terminal, cleaved

The target in assay [1] is B2. In words: ITC. Conditions: both partners purified.
Assay [2] concerns the target B1. Put plainly: ITC. Conditions: both partners purified.

As usually defined, the Kd is the concentration at which binding is half-saturated. Low values mean higher affinity, high ones lower affinity. As to B1, in assay [1], the Kd was determined as 9 nM.
B2 showed a dH in assay [2] of -2140 cal/mol.
